According to PMC1636413 (Nucleic Acids Research, 2006):
Residue numbers refer to the chain shown, from its start.

Assays:
Test in all cases: EMSA
MutSCF/D835R = biological target: T1, MutSCF/D835R (Escherichia coli K12, UniProt P23909 1-853, C93A;C235S;C239A;C297S;C569S;C711V;D835R)
T1 sequence: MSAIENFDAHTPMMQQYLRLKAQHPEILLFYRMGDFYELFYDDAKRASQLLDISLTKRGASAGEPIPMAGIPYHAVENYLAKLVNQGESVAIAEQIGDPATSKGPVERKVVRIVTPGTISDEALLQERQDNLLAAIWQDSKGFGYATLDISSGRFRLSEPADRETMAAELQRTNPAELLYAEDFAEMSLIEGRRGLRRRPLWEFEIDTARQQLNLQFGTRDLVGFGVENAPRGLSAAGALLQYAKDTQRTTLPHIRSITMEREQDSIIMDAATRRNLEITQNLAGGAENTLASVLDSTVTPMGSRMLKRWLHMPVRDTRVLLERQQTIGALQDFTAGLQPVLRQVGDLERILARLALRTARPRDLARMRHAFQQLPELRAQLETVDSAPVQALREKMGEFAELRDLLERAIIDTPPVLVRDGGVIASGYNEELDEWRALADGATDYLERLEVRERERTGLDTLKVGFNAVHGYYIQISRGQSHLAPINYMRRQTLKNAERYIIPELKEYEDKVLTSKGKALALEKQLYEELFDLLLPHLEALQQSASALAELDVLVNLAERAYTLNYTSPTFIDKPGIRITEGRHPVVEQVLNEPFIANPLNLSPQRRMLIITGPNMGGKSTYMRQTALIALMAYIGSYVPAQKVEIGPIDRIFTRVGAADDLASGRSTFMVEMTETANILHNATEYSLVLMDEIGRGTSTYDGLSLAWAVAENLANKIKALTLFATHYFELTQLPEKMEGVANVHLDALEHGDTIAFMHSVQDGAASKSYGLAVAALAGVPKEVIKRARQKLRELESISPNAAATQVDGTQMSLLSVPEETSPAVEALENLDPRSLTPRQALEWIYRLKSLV

[1] = biological target: T2, MutSCF (cysteine-free MutS) (Escherichia coli K12, UniProt P23909 1-853, C93A;C235S;C239A;C297S;C569S;C711V)
T2 sequence: T1 sequence with R835D

MutSwt = biological target: T3, MutSwt (Escherichia coli K12, UniProt P23909 1-853)
T3 sequence: T1 sequence with A93C, S235C, A239C, S297C, S569C, V711C, R835D

B1: 42 bp G/T heteroduplex (dsDNA)
DNA 1: TATTAATTTCGCGGGCTCGAGAGCTTCATCCTCTACGCCGGA
DNA 2: TCCGGCGTAGAGGATGAAGCTTTCGAGCCCGCGAAATTAATA
- apparent K (half saturation) (MutSCF/D835R): 45 ± 3 nM
- apparent K (half saturation) [1]: 42 ± 2 nM
- binding result (MutSwt): binds
